In patent publication US20230416394A1 (ELPISCIENCE SUZHOU BIOPHARMA, published 2023):
Positions count from the first letter of the chain named. Values joined by “and” are separate entries in the source; they are usually repeats but may differ in a detail not shown here. Identical values can stand only once.

Key:
mouse CD39 = biological target: T1, mouse CD39 (mouse, UniProt P55772 1-510); assay: FACS, CHOK1-mCD39 cells
T1 construct: whole, on cells; also called mCD39; CHOK1-mCD39
T1 sequence (looked up): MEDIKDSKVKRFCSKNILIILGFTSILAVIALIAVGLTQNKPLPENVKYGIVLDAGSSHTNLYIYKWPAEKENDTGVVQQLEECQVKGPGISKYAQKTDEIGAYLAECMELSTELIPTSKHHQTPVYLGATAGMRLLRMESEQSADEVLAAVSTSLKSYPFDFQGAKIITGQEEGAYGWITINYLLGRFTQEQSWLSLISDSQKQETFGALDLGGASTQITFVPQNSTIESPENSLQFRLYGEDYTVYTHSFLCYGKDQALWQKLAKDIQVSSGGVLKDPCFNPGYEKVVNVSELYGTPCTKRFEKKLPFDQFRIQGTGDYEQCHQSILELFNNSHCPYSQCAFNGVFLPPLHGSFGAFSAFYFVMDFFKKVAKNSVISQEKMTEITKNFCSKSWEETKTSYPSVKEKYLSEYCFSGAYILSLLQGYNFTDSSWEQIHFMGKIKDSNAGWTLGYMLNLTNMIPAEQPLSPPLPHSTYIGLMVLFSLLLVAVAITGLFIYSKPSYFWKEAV
From the text: FACS were used to determine binding of the antibodies to cell lines expressing CD39 naturally (SK-MEL-28) or recombinantly (CHOK1-hCD39, CHOK1-cynoCD39, and CHOK1-mCD39), or with cells lacking CD39 expression (CHOK1-blank) as a negative control.
CHOK1-hCD39, CHOK1-cCD39, CHOK1-mCD39 and CHOK1-blank cells were maintained in culture medium according to ATCC procedure. Cells were collected and re-suspended in blocking buffer at a density of 3×10⁶ cells/ml. […] The plates were washed with FACS buffer, and cells were re-suspended in 100 μL/well of PBS. Cells were then analyzed with FACSVerse™ and mean fluorescence intensity were determined. Full binding curves were generated on the CD39 expressing cells by testing a range of antibody concentrations. Apparent affinity was determined for each antibody using Prism software.

human CD39 [1] = biological target: T2, human CD39 (human, UniProt P49961 1-510); assay: cell-based or functional assay
T2 sequence: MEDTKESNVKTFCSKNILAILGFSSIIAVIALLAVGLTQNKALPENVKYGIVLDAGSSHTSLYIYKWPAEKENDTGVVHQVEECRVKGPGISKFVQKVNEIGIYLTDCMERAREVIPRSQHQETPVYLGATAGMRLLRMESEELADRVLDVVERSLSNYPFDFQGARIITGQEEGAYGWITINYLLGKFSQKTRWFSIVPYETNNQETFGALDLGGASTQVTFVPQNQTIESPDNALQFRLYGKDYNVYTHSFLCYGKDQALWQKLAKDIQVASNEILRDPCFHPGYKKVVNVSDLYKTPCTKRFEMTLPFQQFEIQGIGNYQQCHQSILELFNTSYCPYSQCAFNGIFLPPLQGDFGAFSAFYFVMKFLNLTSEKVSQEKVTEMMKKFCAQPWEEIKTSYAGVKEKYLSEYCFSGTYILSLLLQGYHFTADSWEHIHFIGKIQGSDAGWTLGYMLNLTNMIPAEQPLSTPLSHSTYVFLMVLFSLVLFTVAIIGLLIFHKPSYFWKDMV

human CD39 [2] = biological target: T2, human CD39; assay: cell-based or functional assay; remark: listed apart in the source

B1: mAb19 (antibody, V domains shown)
VH: EVKLEKSGGGLVQPGGSMKLSCVASGFTFSNYWMNWVRQSPEKGLEWVAQIRLNPDNYATHYAESVKGRFTISRDDYKNSVYLQMSSLRAEDSGIYYCTQHGSRGFAYWGQGTLVTVS
VL: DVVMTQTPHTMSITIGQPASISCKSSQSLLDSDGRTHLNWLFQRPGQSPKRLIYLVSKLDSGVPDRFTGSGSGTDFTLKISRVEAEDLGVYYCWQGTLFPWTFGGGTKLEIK
notes: mouse hybridoma antibody
Mouse CD39
  binding result: no binding (tested: 30 µg/ml)

B2: mAb14 (antibody, V domains shown)
VH: EVKLEESGGGLVQPGGSMKLSCVASGFTFSKYWMNWVRQSPEKGLEWVAEIRLKSNKYGTHYAESVKGRFTISRDDSKNNVYLQMNNLRPEDTGIYYCTTQLDLYWFFDVWGAGTTVTVSS
VL: DIVMTQSPAILSVTPGDRVSLSCRASQSISDYLHWYQQKSHESPRLLIKYASQSISGIPSRFSGSGSGSNFTLSINSVEPEDVGVYFCQNGHSLPLTFGAGTKLELR
notes: mouse hybridoma antibody
Mouse CD39
  binding result: no binding (tested: 30 µg/ml)

B3: c23 (antibody, V domains shown)
VH: EVQLQQSGAELLRPGASVKLSCTASGYNLKDTFLHWVKQRPEQGLEWIGRIDPANGNIKYDPKFQGKATLTADTSSNTAYLQLISLTSEDTAVYYCANSPYYYGSGYRIFDVWGAGTTVTVSS
VL: QIVLTQSPAIMSASPGEKVTITCSAFSSVNYMHWYQQKPGTSPKLLIYTTSNLASGVPTRFSGSGSGTSYSLTISRMEAEDAATYYCQQRSTYPFTFGSGTKLEIQ
Human CD39 [1]
  ATPase inhibition on SK-MEL-28 cells, IC50: 0.158 nM and 0.209 nM

B4: mAb23 (antibody, V domains shown)
VH: B3 VH
VL: B3 VL
notes: mouse hybridoma antibody
Mouse CD39
  binding result: no binding (tested: 30 µg/ml)

B5: mAb34 (antibody, V domains shown)
VH: EIQVQQSGPELVKPGASVKVSCKASGYSFTDYNMYWVKQSHGKSLEWIGFIDPYNGYTSYNQKFKGKATLTIDKSSSTAFMHLNSLTSEDSAVYYCAIYGYDDAYYFDYWGQGTTLTVSS
VL: B3 VL with F26T, N30S, Y35F, Q36R, L46W, T49S, T59A, E78A, S91I, Q106T
notes: mouse hybridoma antibody
Mouse CD39
  binding result: no binding (tested: 30 µg/ml)

B6: mAb21 (antibody, V domains shown)
VH: EVKLEKSGGGLVQPGGSMKLSCVASGFTFSNYWMNWVRQSPEKGLEWVAQIRLNPDNYATHFAESVKGRFTISRDDSKNSVYLQMNSLRAEDTGIYYCTEHGTRGFAYWGQGTLVTVSE
VL: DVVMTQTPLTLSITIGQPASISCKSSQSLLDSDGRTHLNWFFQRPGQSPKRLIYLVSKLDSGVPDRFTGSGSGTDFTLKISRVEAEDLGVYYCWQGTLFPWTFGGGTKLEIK
notes: mouse hybridoma antibody
Mouse CD39
  binding result: no binding (tested: 30 µg/ml)

B7: mAb13 (antibody, V domains shown)
VH: QIQLVQSGPELKKPGETVKISCKASGYTFTNYGMNWVKQAPGKGLRWMGLINTYTGEPTYADDFKDRFAFSLETSASTAFLQINNLKDEDMATYFCARKGIYYDYVWFFDVWGAGTTVTVSS
VL: DIQMTQSPSSLSTSLGGKVSITCKASQDINRYIAWYQHKPGKGPRLLIHYTSTLLPGIPSRFSGSGSGRDYSFSISNLEPEDIATYFCLQYSNLLTFGGGTKLEIK
notes: mouse hybridoma antibody
Mouse CD39
  binding result: no binding (tested: 30 µg/ml)

B8: mAb35 (antibody, V domains shown)
VH: EVRLQQSGAELVKPGASVKLSCTASGFNIEDTYVHWMKQRPEQGLEWIGRIDPAIDNSKYDPKFQGKATITAVSSSNTAYLQLSSLTSEDTAVYYCALYDGYNVYAMDYWGQGTSVTVSS
VL: DIVMTQAAFSNPVTLGTSASISCRSSKNLLHSNGITYLYWYLQRPGQSPQLLIYRASTLASGVPNRFSGSESGTDFTLRISRVEAEDVGVYYCAQLLELPHTFGGGTKLEIK
notes: mouse hybridoma antibody
Mouse CD39
  binding result: no binding (tested: 30 µg/ml)

B9: T895 (antibody, V domains shown)
VH: EVQLQQSGPELVKPGASVKMSCKASGYTFTDYNMHWVKQSHGRTLEWIGYIVPLNGGSTFNQKFKGRATLTVNTSSRTAYMELRSLTSEDSAAYYCARGGTRFAYWGQGTLVTVSA
VL: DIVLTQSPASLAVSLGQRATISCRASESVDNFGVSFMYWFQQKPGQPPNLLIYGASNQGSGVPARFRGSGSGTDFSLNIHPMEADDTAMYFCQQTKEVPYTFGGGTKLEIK
Human CD39 [2]
  ATPase activity inhibition (IC50), MOLP-8 cells: 0.51 nM
  ATPase activity inhibition (IC50), SK-MEL-5 cells: 0.09 nM

B10: hu23.201 (antibody, V domains shown)
VH: QVQLVQSGAEVKKPGASVKVSCKASGYTLKDTFLHWVRQAPGQRLEWMGRIDPANGNIKYDPKFQGRVTLTADTSSNTAYMELSSLRSEDTAVYYCANSPYYYGSGYRIFDVWGQGTLVTVSS
VL: EIVLTQSPATLSLSPGERATLSCSAFSSVNYMHWYQQKPGQSPRLLIYTTSNLASGIPARFSGSGSGTDYTLTISSLEPEDFAVYYCQQRSTYPFTFGQGTKLEIK
Human CD39 [1]
  ATPase inhibition on SK-MEL-28 cells, IC50: 0.264 nM

B11: hu23.H7L6 (antibody, V domains shown)
VH: EVQLVQSGAEVKKPGASVKLSCKASGYNLKDTFLHWVKQAPGQGLEWIGRIDPANGNIKYDPKFQGKATLTADTSANTAYLELISLRSEDTAVYYCANSPYYYGSGYRIFDVWGQGTTVTVSS
VL: B10 VL with E1Q, L13A, S42A, R44K, I57V, A59T, D69S, L77M
Human CD39 [1]
  ATPase inhibition on SK-MEL-28 cells, IC50: 0.121 nM

B12: hu23.H2L2 (antibody, V domains shown)
VH: B10 VH with T28N, R44G, L70I, S76A, N77S, L118T
VL: B10 VL with S42A
Human CD39 [1]
  ATPase inhibition on SK-MEL-28 cells, IC50: 0.767 nM

B13: hu23.H1L2 (antibody, V domains shown)
VH: B10 VH with T28N, L70I, A72R, S76A, N77S, N98R, L118T
VL: B10 VL with S42A
Human CD39 [1]
  ATPase inhibition on SK-MEL-28 cells, IC50: 0.964 nM

B14: hu23.H5L5 (antibody, V domains shown)
VH: B10 VH with T28N, R44G, L70I, S76A, S84I, L118T
VL: B10 VL with E1Q, S42A, A59T, D69S
Human CD39 [1]
  ATPase inhibition on SK-MEL-28 cells, IC50: 0.122 nM
Human CD39 [2]
  ATPase activity inhibition (IC50), MOLP-8 cells: 0.33 nM
  ATPase activity inhibition (IC50), SK-MEL-5 cells: 0.07 nM

B15: hu23.H5L6 (antibody, V domains shown)
VH: B10 VH with T28N, R44G, L70I, S76A, S84I, L118T
VL: B10 VL with E1Q, L13A, S42A, R44K, I57V, A59T, D69S, L77M
Human CD39 [1]
  ATPase inhibition on SK-MEL-28 cells, IC50: 0.13 nM

B16: hu23.H1L4 (antibody, V domains shown)
VH: B10 VH with T28N, L70I, A72R, S76A, N77S, N98R, L118T
VL: B10 VL with L13A, A19V, L21I, S42A, L77M
Human CD39 [1]
  ATPase inhibition on SK-MEL-28 cells, IC50: 0.59 nM

B17: hu23.203 (antibody, V domains shown)
VH: B10 VH
VL: B10 VL with S12T, S42A
Human CD39 [1]
  ATPase inhibition on SK-MEL-28 cells, IC50: 0.32 nM

B18: hu23.H7L1 (antibody, V domains shown)
VH: B11 VH
VL: B10 VL with S42A, Y70F
Human CD39 [1]
  ATPase inhibition on SK-MEL-28 cells, IC50: 0.147 nM

B19: hu23.H4L4 (antibody, V domains shown)
VH: B11 VH with E1Q, K67R, N77S, I84S
VL: B10 VL with L13A, A19V, L21I, S42A, L77M
Human CD39 [1]
  ATPase inhibition on SK-MEL-28 cells, IC50: 0.487 nM

B20: hu23.H7L5 (antibody, V domains shown)
VH: B11 VH
VL: B10 VL with E1Q, S42A, A59T, D69S
Human CD39 [1]
  ATPase inhibition on SK-MEL-28 cells, IC50: 0.144 nM

B21: hu23.211 (antibody, V domains shown)
VH: B10 VH with Q1E, L70I
VL: B10 VL with S42A
Human CD39 [1]
  ATPase inhibition on SK-MEL-28 cells, IC50: 0.386 nM
